Test results: patent publication US20060234285A1 (Human Genome Sciences, published 2006)

What was measured:
[1] = target: T1, TNF-gamma-beta, full length, on transfected cells (human, UniProt O95150 1-251); assay: flow cytometry on HEK293F cells expressing full length TNF-gamma-beta
T1 construct: whole, on cells; also called TL1β
T1 sequence (looked up): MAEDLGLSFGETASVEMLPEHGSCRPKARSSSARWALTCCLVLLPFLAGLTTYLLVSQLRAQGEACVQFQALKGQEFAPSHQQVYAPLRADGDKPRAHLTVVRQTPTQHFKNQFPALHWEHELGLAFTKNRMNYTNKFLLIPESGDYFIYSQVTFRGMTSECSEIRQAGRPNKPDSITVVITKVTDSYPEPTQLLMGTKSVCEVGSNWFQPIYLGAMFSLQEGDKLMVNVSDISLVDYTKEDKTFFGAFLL
Procedure: One million cells, in 0.1 ml of FACS buffer (PBS, 0.1% BSA, 0.1% NaN₃), were incubated with 0.1-1 microgram of protein or antibody at RT for 15 min. The cells were washed with 3 ml of FACS buffer, reacted with biotinylated primary antibody, and stained with PE-conjugated secondary antibody at RT for 15 min. Cells were then washed again, resuspended in 0.5 microgram/ml of propidium iodide, and live cells were gated and analyzed on a FACScan using the CellQuest software (BD Biosciences).

[2] = target: T2, Soluble human FLAG-FasL (synthesized at HGS) (human, UniProt P48023 130-281, limits assumed); assay: BIAcore, trimerized FLAG-FasL soluble
T2 construct: called trimerized in the kinetic BIAcore run; cross-linked with FLAG antibody in the cell assays; also called FasL-Flag; trimerized FLAG-FasL
T2 sequence (looked up): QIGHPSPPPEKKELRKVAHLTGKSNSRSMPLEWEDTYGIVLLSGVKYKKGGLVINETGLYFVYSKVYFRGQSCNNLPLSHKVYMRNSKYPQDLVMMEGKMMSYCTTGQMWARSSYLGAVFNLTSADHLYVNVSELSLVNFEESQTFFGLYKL

[3] = target: T2, Soluble human FLAG-FasL (synthesized at …); assay: cell-based or functional assay
[4] = target: T3, Murine FasL on transfected murine L929 cells (murine, UniProt P41047 1-279); assay: cell-based or functional assay
T3 sequence (looked up): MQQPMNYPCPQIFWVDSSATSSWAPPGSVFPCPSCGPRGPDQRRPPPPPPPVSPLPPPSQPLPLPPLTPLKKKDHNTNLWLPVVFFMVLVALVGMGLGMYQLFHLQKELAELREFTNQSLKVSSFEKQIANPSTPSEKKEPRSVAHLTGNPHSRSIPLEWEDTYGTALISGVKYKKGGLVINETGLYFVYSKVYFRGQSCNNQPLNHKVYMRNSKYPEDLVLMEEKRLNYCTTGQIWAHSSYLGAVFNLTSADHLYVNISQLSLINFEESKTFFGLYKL

[5] = target: T4, FLAG-tagged soluble form of TNF-gamma-beta (aa 72-251) (human, UniProt O95150 72-251); assay: coimmunoprecipitation with protein A-Sepharose, anti-Flag western blot
T4 construct: also called FLAG-TL1β; FLAG-TNF-gamma-beta
T4 sequence (looked up): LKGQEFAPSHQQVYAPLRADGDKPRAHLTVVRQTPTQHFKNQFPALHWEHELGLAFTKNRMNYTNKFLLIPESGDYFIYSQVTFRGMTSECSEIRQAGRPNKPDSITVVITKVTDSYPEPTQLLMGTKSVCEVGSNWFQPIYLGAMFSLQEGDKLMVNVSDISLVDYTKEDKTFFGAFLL
From the text: The beads were then precipitated and washed extensively with PBST buffer (PBS, 0.5% Triton X-100) before boiled in SDS-sample buffer. Proteins were resolved on 4-20% Tris-Glycine gels (NOVEX), transferred to nitrocellulose membranes, and blotted with anti-Flag M2 monoclonal antibody (1 microgram/ml, Sigma) and horseradish peroxidase (HRP)-conjugated goat anti-mouse IgG antibody (0.5 microgram/ml).

[6] = target: T5, Human LIGHT, full length, on cells (stably transfected 293F cells; endogenous on activated human T cells) (human, UniProt O43557 1-240); assay: flow cytometry on 293 cells overexpressing LIGHT
T5 construct: whole, on cells; also called LIGHT-transfectants; cell membrane LIGHT
Procedure: This was tested on 293 cells overexpressing LIGHT according to flow cytometry.

T5 sequence (O43557 whole entry): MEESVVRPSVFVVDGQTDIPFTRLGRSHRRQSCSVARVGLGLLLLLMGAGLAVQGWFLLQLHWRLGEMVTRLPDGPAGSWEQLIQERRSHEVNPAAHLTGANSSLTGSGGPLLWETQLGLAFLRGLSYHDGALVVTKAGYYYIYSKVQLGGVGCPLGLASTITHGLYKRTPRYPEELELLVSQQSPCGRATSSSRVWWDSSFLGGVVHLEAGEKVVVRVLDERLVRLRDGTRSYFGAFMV

B1: Human Fas(M1-G169)-Fc fusion protein (Fc fusion, UniProt P25445 26-169, looked up, not shown: a dimerising Fc or GST)
chain: QVTDINSKGLELRKTVTTVETQNLEGLHHDGQFCHKPCPPGERKARDCTVNGDEPDCVPCQEGKEYTDKAHFSSKCRRCRLCDEGHGLEVEINCTRTQNTKCRCKPNFFCNSTVCEHCDPCTKCEHGIIKECTLTSNTKCKEEG
notes: range 1-169; From CHO cells; a disulfide-linked dimer; also called Fas-Fc; FasFc
[1]
  binding result: no binding
[2]
  Kd: 7.4 nM
[3]
  cross-linked FLAG-FasL mediated HT-29 cell death; shift of the cytotoxicity curve: ~10 fold
[4]
  IC50 of inhibition of killing of A20 target cells by murine FasL-transfected L929 cells: ~0.1 µg/mL
[5]
  binding result: no binding
[6]
  binding result: no binding
